Reference: article doi:10.1101/2021.04.12.439405 (bioRxiv, 2021)

Target: T1, MukB^KRK (K1114E, R1122E and K1125E) (E. coli, UniProt P22523 1-1486, K1114E | R1122E | K1125E)
T1 sequence (looked up): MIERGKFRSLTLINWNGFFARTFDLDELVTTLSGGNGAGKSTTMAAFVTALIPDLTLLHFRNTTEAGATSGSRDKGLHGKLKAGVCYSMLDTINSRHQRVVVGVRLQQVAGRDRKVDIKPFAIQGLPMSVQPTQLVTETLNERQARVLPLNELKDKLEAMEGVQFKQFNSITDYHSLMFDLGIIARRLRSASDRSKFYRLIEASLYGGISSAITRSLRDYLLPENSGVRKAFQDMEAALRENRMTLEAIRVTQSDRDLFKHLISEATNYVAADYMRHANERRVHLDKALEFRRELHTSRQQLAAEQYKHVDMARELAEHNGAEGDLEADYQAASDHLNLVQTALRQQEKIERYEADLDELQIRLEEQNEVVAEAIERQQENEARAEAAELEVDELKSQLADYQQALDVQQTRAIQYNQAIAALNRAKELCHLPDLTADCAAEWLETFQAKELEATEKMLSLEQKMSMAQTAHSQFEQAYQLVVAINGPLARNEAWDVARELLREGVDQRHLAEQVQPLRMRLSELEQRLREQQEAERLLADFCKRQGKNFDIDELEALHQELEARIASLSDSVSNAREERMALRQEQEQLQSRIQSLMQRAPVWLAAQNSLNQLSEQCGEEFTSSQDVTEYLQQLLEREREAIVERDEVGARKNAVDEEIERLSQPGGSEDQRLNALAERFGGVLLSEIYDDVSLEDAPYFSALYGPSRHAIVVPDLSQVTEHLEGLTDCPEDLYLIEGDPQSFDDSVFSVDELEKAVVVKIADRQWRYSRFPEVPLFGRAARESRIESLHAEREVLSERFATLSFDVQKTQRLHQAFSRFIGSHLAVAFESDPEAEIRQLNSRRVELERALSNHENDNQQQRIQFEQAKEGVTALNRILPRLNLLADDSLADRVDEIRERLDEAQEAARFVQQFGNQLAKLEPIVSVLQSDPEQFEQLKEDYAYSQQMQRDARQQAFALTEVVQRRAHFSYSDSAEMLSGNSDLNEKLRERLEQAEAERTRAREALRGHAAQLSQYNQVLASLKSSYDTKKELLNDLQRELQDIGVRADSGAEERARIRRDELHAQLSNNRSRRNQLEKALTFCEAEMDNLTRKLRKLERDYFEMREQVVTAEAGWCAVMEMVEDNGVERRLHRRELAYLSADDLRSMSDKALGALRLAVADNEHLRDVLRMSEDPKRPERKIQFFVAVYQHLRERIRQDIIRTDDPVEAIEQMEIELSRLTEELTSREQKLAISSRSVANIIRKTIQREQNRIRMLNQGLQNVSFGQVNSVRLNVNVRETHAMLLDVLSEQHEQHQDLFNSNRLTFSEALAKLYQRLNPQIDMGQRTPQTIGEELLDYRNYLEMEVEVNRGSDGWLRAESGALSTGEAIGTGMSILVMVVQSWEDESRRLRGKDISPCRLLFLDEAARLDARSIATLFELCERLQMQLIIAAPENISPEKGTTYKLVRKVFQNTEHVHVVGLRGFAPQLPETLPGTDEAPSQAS
Experiment: native gel or EMSA

binding result: binds
B1: His-MukF (natural protein, E. coli, UniProt P60293 1-440, looked up)
chain: MSEFSQTVPELVAWARKNDFSISLPVDRLSFLLAVATLNGERLDGEMSEGELVDAFRHVSDAFEQTSETIGVRANNAINDMVRQRLLNRFTSEQAEGNAIYRLTPLGIGITDYYIRQREFSTLRLSMQLSIVAGELKRAADAAEEGGDEFHWHRNVYAPLKYSVAEIFDSIDLTQRLMDEQQQQVKDDIAQLLNKDWRAAISSCELLLSETSGTLRELQDTLEAAGDKLQANLLRIQDATMTHDDLHFVDRLVFDLQSKLDRIISWGQQSIDLWIGYDRHVHKFIRTAIDMDKNRVFAQRLRQSVQTYFDEPWALTYANADRLLDMRDEEMALRDEEVTGELPEDLEYEEFNEIREQLAAIIEEQLAVYKTRQVPLDLGLVVREYLSQYPRARHFDVARIVIDQAVRLGVAQADFTGLPAKWQPINDYGAKVQAHVIDKY
